Where “and” joins values, the source holds several entries; their conditions need not be identical. Equal values may be shown once.
How the values were obtained:
[1] = molecular target: T1, norovirus GII.10 VLPs (full-length capsid protein VP1, virus-like particles) (norovirus GII.10 (Vietnam026))
T1 chain: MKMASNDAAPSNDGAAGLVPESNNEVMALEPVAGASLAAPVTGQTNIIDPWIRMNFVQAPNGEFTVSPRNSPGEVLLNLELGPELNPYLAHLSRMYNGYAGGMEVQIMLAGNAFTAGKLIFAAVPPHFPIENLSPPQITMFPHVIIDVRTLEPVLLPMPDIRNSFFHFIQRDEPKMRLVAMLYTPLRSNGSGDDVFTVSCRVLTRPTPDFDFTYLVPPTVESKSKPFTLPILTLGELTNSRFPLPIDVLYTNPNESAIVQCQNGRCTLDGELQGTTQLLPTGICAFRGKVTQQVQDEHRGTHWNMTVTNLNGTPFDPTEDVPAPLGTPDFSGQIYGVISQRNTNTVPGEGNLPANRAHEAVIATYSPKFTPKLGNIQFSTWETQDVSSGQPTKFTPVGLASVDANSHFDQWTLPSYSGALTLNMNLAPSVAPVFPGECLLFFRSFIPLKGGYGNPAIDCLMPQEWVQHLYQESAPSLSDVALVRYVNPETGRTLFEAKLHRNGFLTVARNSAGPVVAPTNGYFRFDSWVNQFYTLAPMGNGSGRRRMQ

[2] = molecular target: T2, norovirus GII.4 2006 VLPs (full-length capsid protein VP1, virus-like particles) (norovirus GII.4 (Saga4 2006)); experiment: blocking ELISA: GII.4 VLPs pretreated with Nano-26, binding to coated PGM
T2 construct: mature; also called GII.4 VLPs

B1: Nano-26 (VHH)
VHH: QVQLQESGGGLVQPGGSLRLSCTAPRIIFFMYDVGWYRQAPEKQRELVAQINSDVSTKYADSVKGRFTISRDNAKRTVYLQMNDLKPEDAAVYYCNVRRASADYWGQGTQVTVSS
notes: also called Nanobody Nano-26; N26; not shown: His-tag implied by detection with an anti-His-tag antibody (pHEN6C vector); its
- IC50 [1]: 6.6 µg/mL and 3.1 µg/mL and 2.6 µg/mL and 4.3 µg/mL
- IC50 [2]: 2.4 µg/mL

Reference: patent US20200231656A1 (UNIVERSIT T HEIDELBERG, published 2020)
